This note sets out measurements from PMC6083090, “CNBP Homologues Gis2 and Znf9 Interact with a Putative G-Quadruplex-Forming 3′ Untranslated Region, Altering Polysome Association and Stress Tolerance in Cryptococcus neoformans”.

For series [1], the target named is T1, rGis2 (Cryptococcus neoformans (H99), UniProt J9VQ17 1-201).
T1 sequence: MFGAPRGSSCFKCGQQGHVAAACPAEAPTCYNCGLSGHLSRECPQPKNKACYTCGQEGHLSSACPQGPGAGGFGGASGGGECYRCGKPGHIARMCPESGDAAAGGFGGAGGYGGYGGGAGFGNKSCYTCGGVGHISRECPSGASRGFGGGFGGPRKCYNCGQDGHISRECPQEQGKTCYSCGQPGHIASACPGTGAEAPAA
Put plainly: competition; 25x and 50x competitor, UV-cross-linked EMSA; EMSA: 15 mM HEPES pH 7.4, 40 mM KCl, 5 mM MgCl2, 5% glycerol, 0.5 pmol probe in 20 µl, room temperature 20 min, then UV cross-link on ice 10 min. The settings on record: protein: recombinant; tags: His (pET14b, Ni-NTA); label: none; no G4. In general terms: Mobility shift assays separate free from complexed probe on a gel.

Series [2] has as its target T2, rZnf9 (Cryptococcus neoformans (H99), UniProt J9VQH8 1-184).
T2 sequence: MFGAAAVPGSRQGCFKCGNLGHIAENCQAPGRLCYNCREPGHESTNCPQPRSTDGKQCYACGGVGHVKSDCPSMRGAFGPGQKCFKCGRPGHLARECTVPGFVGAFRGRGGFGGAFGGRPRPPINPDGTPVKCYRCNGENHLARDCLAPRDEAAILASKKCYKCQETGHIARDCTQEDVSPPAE
The series is described as above. The settings on record: protein: recombinant; tags: His (pET14b, Ni-NTA); label: none; no G4.

Series [3] concerns the target T1, rGis2. Put plainly: UV-cross-linked EMSA; 5 mM Mg2+; EMSA: 15 mM HEPES pH 7.4, 40 mM KCl, 5 mM MgCl2, 5% glycerol, 0.5 pmol probe in 20 µl, room temperature 20 min, then UV cross-link on ice 10 min. The settings on record: protein: recombinant; tags: His (pET14b, Ni-NTA); label: 5'-TYE705; putative intramolecular G4.
For series [4], the target named is T2, rZnf9. The series is described as above. The settings on record: protein: recombinant; tags: His (pET14b, Ni-NTA); label: 5'-TYE705; putative intramolecular G4.

As to UGCAGUGGAGUUGGAGUGAAACCAAACCGUUGGGCAGUGGGCCCGUGGAU (ssRNA) [mt competitor (cons mt)], the binding result in the series with rGis2 [1] and with rZnf9 [2] was “no binding” each time.

For the molecule UGCAGUGGAGUUGGAGUGGGGAUGGGAUGUUGGGCAGUGGGCCCGUGGAU (structured_RNA) [TYE705-RPL2-3'UTR], the binding result with rGis2 [3] and with rZnf9 [4] was “binds” throughout.
